Data published in patent US20100129315A1.

Biological target: human MN protein, entire extra-cellular domain with a C-terminal histag, expressed in HKB-11 cells (human) (UniProt Q16790)
Assay: method not restated (Biacore by context)

**Q.** For “MN antibody G250, a humanized IgG1 antibody (Wilex)”, which Kd is on record?
**A.** 5.3 nM
